# From article PMC11091055 (2024)
# B1: nanobody N235, His-tagged (VHH)
# VHH: QVQLQESGGGLVQPGGSLRLSCAASGLIISRYDMSWYRQAPGKERELVATTPIPAARPQYADSVKGRFTISRDNAKNTVSLQMNSLKPEDTAVYYCNLGPESQDHNYNYWGQGTQVTVSS
# Target: SARS-CoV-2 prototype (PT) S NTD, human Fc-tagged (SARS-CoV-2)
# Test: SPR
binder,measurement,value
B1,koff,0.00024 s⁻¹
